Experimental data from the supplement of paper PMC12042874.
± gives the uncertainty stated by the source.

assay: amyloid nucleation score (Sup35N fusion, yeast selection) (log enrichment); library NNK1; higher = more nucleation; inactive = no reads after selection
Outline: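 Growth for 7 days at 30°C on medium lacking adenine and uracil followed a 24-hour induction with 100 μM copper sulfate of psi-negative yeast expressing peptides of 20 random codons fused to Sup35N. Input and output plasmid inserts were sequenced with Illumina, and sequences with under 100 input reads were excluded. Nucleation score is the DiMSum log enrichment of output over input reads, centred on the mode score of non-aggregating sequences.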

Substance | amyloid nucleation score
HYSNVKTGGKSGKWEIRDLE | -0.559 ± 0.35
SYHSMA | inactive
SSWSGMFTCSYTMMLWLRRL | -0.692 ± 0.75
YMKLRCMK | 0.019 ± 0.6
PIEHDEWLTVMVYCDGRLLA | -0.894 ± 2.4
LWVFRCARLKVWQPRKGWGQ | 0.844 ± 0.48
CLGQDKLWNFVFTFLYLLQF | -0.172 ± 0.48
WAAFLVMDGWICDQAYMTMR | inactive
WVWDCFHDCVPYMGRTGLVA | -0.56 ± 0.93
LYKLWQSKFTVYWLEGLTSY | inactive
WSSWGGSTGVVRKREELCGR | -0.44 ± 0.5
IAVFWCFKMNWALMMRTKDM | 0.13 ± 0.38
VAISQCLNNSNSRNIIVVKW | 1.69 ± 0.34
NNYNYLYTYNMQNQKQFIFM | 7.281 ± 0.066
CKRWRSILVKSSRSIMGTDV | -0.171 ± 1.1
AYFMVHLLIF | 1.34 ± 0.13
TASGVDIVRRGCPRLVMLVV | -0.42 ± 0.43
VHASYIVRIRHLSGILEGAV | 0.369 ± 0.46
ICYIPADFVKPAMVNLYLAM | 2.99 ± 0.11
NTCTMCGWICAFLRPVFCVV | 0.745 ± 1.2
ISLISYFFSFLWLYYYFFEF | 1.06 ± 0.28
GRRVFGRYVQINNGPISRFF | 0.266 ± 1.1
TLRVLFFKCLGHIRLLVRGF | -1.64 ± 2.7
PLEMGSHIGRL | -1.54 ± 2.7
LTLALESLEPIRLTRNMWAL | -0.411 ± 0.65

Substance | amyloid nucleation score
IVTKGGLNNVCAVYLCYVGS | 6.46 ± 0.065
QEINGKAQWSPIHSISTMAA | 0.33 ± 0.51
GVSMFHRFSSHNWMCCWFVG | 7.654 ± 0.064
RWLGRRMRAGFAYGAFRTGY | 0.054 ± 0.8
FKSYWGSTWRSNSWVGDMRG | -0.225 ± 0.46
YISKSCRWSRTASSNVCIFI | 0.022 ± 0.33
VSIRTGGTCHYT | 0.123 ± 0.28
LNFFVPA | -1.38 ± 2.4
FKRSLRCLYVVACNALYWDA | -0.026 ± 0.51
MPGSTLLSAKMTSLGGTALW | 0.392 ± 0.4
IRELRSDFSGSMVDERFLGE | 0.489 ± 1.1
KTWNVCALARGWECEAINVW | -0.264 ± 0.3
NLCYHWVRNIQNGQRFLCQL | inactive
EILETGRCLSFLYRIVDGCI | inactive
RYRSVVIPRVHAIEVIYAAC | -0.378 ± 0.97
NPCHKMFSRNPHLYMAAVKS | 0.335 ± 0.96
SDALTKMDLITLRDKI | inactive
FWLLS | -0.153 ± 1
VSKLLCLRMHMLKLW | -0.48 ± 0.48
FDKSRVDRLSDKGRCCCVL | 1.36 ± 0.69
TKIRCDRWTLYIKGITYRAL | 0.86 ± 1.1
RCRPKVWACS | -0.102 ± 1
ITWFVYGPLGWMWGFLRPTA | 0.019 ± 0.62
IFGTHFGTCFSGHAEEDTGE | 0.724 ± 0.83
SDFNLDSSGMKRVKSRV | 0.817 ± 0.69

Substance | amyloid nucleation score
FLVKSIRTVGL | 0.605 ± 0.36
LYGSRPYSTTKTY | -0.11 ± 0.33
DRMKTQGFCQTFNFWLGYYI | 6.97 ± 0.075
TFLYVWSTSDSYKK | 0.148 ± 0.61
NCFSMRQRECCRYRMCVNGI | 1.01 ± 0.55
GNSVIDRSFGIFNCYEGLSC | 1.62 ± 0.72
DNIYIYIPVTYFCATLRMWR | 5.09 ± 0.071
RVRILITYM | 1.18 ± 0.17
VFESIVNGQVMMTLN | -1.92 ± 2.4
REEKV | 0.068 ± 0.42
YCMCCNNRVLMVYHCTQVSA | inactive
TTSVV | -0.174 ± 1.2
TRKLFTFMLDRMYLMVGRRL | -0.294 ± 0.6
MGKNMVANWILHHRHSQ | -0.343 ± 0.46
EGSVGHRMVSWVFISYTLVL | 0.006 ± 1.1
VGLLSISLMYQRTASTGYFS | 0.615 ± 0.28
GSDVREWLVQQSKSMFLWVW | -0.226 ± 0.47
VRTYWTYANWIFMYKKRAQA | -1.85 ± 2.4
VILTYGTVRY | 0.38 ± 0.59
PFVRVLTLGYAGVWNGRGKP | 0.904 ± 0.57
DDKIVRIEDSMAASNIAFLA | 0.371 ± 0.32
KTAPGLKCIQIEVWQY | 0.035 ± 0.35
ITLNWKIAEFSRCTVQLQNL | 6.324 ± 0.061
FAYFSVNCL | inactive
DCLSSGFLDTLYVVQVRGSD | inactive

Substance | amyloid nucleation score
RMFEVARSSKRSLFHSILET | 0.109 ± 0.26
RGYLAWLSGDQA | 1.68 ± 0.52
AANCTMMFKKPSWNVTRERV | 0.26 ± 0.34
SDMFSLNYSFDERTFWKQTS | inactive
DYWRHSHVLHSPTKRKNRLV | 0.223 ± 0.34
CRLESGHYLCSHGRVSGLR | 0.796 ± 0.38
HRTDRCVVMLHWPWIF | -0.025 ± 0.56
VNAMSLLILDAVLDKEQW | 0.921 ± 1
SRRNYWVFGGHMFND | -0.134 ± 1.7
GVVLGYRCLNMGLKALWSYV | -0.248 ± 0.48
SPNCM | -0.358 ± 1.4
DEDHFYTSRML | 0.639 ± 1.1
YIGECLRKLIRCAHKDCEGY | -1.49 ± 1.2
VVQAVIR | -1.01 ± 1.7
GGSLVSGSFDKYSYSKYRLW | -0.128 ± 1.4
MREDIAFDFW | 4.22 ± 0.15
ILLMSSGEDYSHTGAP | -0.06 ± 0.76
RVILFFRFIAILEDCATVSF | -0.544 ± 0.25
NFVSYTFLCCGCVVLILVTS | 0.114 ± 0.28
CYKAAQGFIFSRK | 0.482 ± 0.32
MCWPTDAEDAICTSLK | 2.12 ± 0.11
FNWMRP | 0.706 ± 0.31
FNITYCFRSFSTSVDNGF | 0.436 ± 0.55
DRYCGYWNGTSSCMICGRVV | 1.1 ± 0.69
RRPIGMACGDGRVYFWDHTA | -0.036 ± 0.47

Substance | amyloid nucleation score
ALHVGLNSFPGMSRYV | 0.212 ± 0.89
MSRMFRVLHRVLSSW | -0.538 ± 1.2
MFIVYRMDLEFM | 1.64 ± 0.51
HAGFGFVSSCCYLHWLTGDR | 3.98 ± 0.095
TLHVEWSSVIAMLFKMSCGL | -0.785 ± 0.88
VKSGALKYRKIGAYGTGSRL | 0.728 ± 1.2
GIFNYWRYYMVDV | 0.673 ± 0.29
VLNYHLH | -0.569 ± 0.79
TWGRVFSLMAPFISRPCFWG | -0.385 ± 0.34
CIISGMLWLAMKRTMGIELW | 2.88 ± 0.18
VRCCGPFRACIVLLAITKDG | -0.393 ± 1.4
ITFLLRSFRVHS | inactive
IGDKYGYCKYGRYADGQVIS | inactive
ILIGRPQYIDRYMSSCVIIL | inactive
VISGVCFSDIFLDVPTLWLW | 0.393 ± 0.3
NDRLFLHGARKLTVLIFVVG | -0.015 ± 0.3
KVTMRWV | 2.21 ± 0.27
LGRKFT | 2.05 ± 0.41
PFRGDGIGYISVGGWFVQDN | -1.51 ± 2.4
IQTCCHIQVELV | 3.79 ± 0.088
NFSLIFENMIALFPYPARKR | 7.742 ± 0.056
PLELPVVFIMSDFSFWRRAQ | 0.555 ± 0.53
LFTCVQFIMGVDDRWKRARS | 2.19 ± 0.26
PSGTQCTAE | -0.047 ± 0.65
FLLIVVCWDLRLSSFHKLYF | 0.657 ± 0.73
